Among the data in publication PMC7142922 are binding values, retold here.

This data set deals with T1, TyrR (Escherichia coli DH5alpha) (UniProt P07604).
T1 sequence: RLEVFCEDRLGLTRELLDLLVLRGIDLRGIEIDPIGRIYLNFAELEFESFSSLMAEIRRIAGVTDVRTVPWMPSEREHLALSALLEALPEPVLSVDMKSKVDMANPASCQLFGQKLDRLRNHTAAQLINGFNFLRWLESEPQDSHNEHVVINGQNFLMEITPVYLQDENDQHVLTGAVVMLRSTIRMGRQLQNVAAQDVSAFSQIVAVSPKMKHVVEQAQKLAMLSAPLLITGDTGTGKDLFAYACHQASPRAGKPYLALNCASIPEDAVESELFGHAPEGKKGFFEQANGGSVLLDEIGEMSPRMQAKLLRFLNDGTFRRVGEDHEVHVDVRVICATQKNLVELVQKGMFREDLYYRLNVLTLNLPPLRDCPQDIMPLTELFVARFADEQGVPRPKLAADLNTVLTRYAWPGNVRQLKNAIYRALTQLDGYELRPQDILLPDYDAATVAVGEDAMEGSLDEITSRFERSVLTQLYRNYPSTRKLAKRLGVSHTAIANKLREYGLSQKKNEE
Kind of data set: EMSA. The following applies: TyrR EMSA: 50 mM Tris-HCl pH 7.8, 50 mM NaCl, 3 mM Mg acetate, 0.1 mM EDTA, 0.1 mM DTT, 25 ug/mL BSA, 0.1 mM Phe, 0.1 mM ATP, ~15 nM DNA, 37 C 30 min, 2% ….

“CTGCAGCACTATCACTCTTTTGTCTTGGTAAGAATAATGGTATGTGACTGCGAATGCACCTGCTTTGTGCAGGGGTGATGACGAGTTGCGTAAAAAGAAAGCACTTGTAAACCCTTTTAGCATTACTCACTTTATTTTGCATAGCATGTGATGTGCGGAGAAATCTTAGCAGTGAGCAGACCAATAAATAGAATATTCAGAACGGTGTTATTTTATTGACATCGTCAGCGGGGGAGGCGTTTAATTTATATTCGGATGTCGTAAAGCTTAA (double strand) [deltaTB fragment without TyrR boxes (274 bp)]”: the binding result is “no binding”.
